# Reference: paper PMC4873633, “Dietary salt regulates uroguanylin expression and signaling activity in the kidney, but not in the intestine” (Physiological Reports, 2016)
# Bridge positions count the residues as written; N and C are the ends. Peptide text beside a SMILES is read from it.
# How the values were obtained:
# [1] = target: T1, GC-C (Ugn receptor) in T84 cell membranes (Homo sapiens, UniProt P25092); experiment: Competitive Ugn binding assay (125I-Y-Ugn, T84 cell membranes); conditions: pH 4.5, 1 h at 25°C; for Ki: displacement of 1 nmol/L 125I-Y-Ugn, T84 cell membranes, triplicate, rat Ugn n = 8 (R2 0.9985), rat Gn n = 3 (R2 0.9587), rat proUgn n = 3 (R2 0.9677)
# T1 construct: plasma membranes derived from the T84 cell line, which abundantly expresses GC‐C; endogenous in cells; host or cells: T84 cell membranes
# T1 sequence (P25092 24-1073): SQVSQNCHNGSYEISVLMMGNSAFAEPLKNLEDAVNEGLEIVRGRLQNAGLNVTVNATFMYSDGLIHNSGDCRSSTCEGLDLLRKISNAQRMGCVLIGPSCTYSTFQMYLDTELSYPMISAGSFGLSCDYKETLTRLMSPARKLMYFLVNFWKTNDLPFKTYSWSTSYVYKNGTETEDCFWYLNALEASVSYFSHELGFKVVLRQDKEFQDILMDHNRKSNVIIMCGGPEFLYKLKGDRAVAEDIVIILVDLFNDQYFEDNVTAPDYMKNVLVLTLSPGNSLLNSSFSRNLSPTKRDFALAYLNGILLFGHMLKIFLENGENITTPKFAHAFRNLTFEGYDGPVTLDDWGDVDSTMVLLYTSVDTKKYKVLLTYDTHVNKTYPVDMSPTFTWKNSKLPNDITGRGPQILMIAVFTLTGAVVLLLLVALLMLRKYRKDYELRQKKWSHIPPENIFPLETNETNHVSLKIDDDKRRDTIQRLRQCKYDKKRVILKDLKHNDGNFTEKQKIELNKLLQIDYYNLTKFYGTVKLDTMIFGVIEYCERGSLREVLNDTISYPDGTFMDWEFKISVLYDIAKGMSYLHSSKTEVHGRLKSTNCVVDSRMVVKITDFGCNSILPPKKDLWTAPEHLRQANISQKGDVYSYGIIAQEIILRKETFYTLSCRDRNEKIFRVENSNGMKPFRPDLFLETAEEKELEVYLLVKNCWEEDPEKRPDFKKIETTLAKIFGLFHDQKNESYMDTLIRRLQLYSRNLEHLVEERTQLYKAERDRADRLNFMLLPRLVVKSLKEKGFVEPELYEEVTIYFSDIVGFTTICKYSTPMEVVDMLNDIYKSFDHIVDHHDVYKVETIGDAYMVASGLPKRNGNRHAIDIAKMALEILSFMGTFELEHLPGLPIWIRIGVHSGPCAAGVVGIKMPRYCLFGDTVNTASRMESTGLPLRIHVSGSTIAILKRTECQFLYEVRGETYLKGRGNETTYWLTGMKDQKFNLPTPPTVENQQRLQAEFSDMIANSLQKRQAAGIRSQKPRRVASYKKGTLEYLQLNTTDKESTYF
# Description: Urine samples were first dialyzed against deionized H2O, using SpectraPor® 500‐M.W. cutoff dialysis membrane (Spectrum Laboratories Inc., Rancho Domingo, CA), then dried (Savant SpeedVac, Thermo Electron Corporation, Waltham, MA) and re‐dissolved in 100 μL of assay buffer [1 nmol/L ^125I‐Y‐Ugn in NaHCO3–free HBSS supplemented with 20 mmol/L sodium citrate and 0.75% bovine serum albumin (Sigma, St. Louis, Mo, USA)]. The pH was individually adjusted to 4.5 with NaOH or HCl using a miniaturized glass microelectrode (Microelectrodes Inc., Bedford, NH). Prepared samples were incubated in triplicate for 1 h at 25°C in polypropylene tubes with 20 μL of T84 cell membranes (10–20 μg protein). Samples were then diluted in 1 mL of ice‐cold rinse buffer, rapidly filtered through Whatman GF/C glass microfiber filters presoaked in distilled water, and quickly rinsed twice with 5 mL of ice‐cold rinse buffer (50 mmol/L Tris‐HCl at pH 7.0). Bound radioligand (retained by the filter) was quantified with a gamma counter (Packard Cobra, PerkinElmer Life and Analytical Sciences Inc., Waltham, MA). Ugn concentrations in sample solutions were calculated by interpolation in a standard curve obtained from a dilution series of synthetic rat Ugn incubated and analyzed in parallel with the unknowns. Non‐specific binding was determined by including 10^−5 mol/L unlabeled Y‐Ugn in place of Ugn standards or unknowns.
# All data were plotted as mean ± SEM (or, in the case of n = 2, as mean ± range). Paired t‐tests were used for comparison of Ugn excretion, water consumption, and food consumption. GraphPad Prism 5.0 (LaJolla, CA) was used for analysis of binding data, with formulas derived from the Cheng‐Prusoff equation: cpm bound = NSB + [(B max − NSB)/1 + 10∧[log10(competitor concentration) − log10(IC50)]}], where NSB = nonspecific binding (in the presence of saturating competitor) and B max = maximal binding (in the absence of competitor). […]
# Because GC‐C, the Ugn receptor (Schulz et al. 1990), is activated at the apical membranes of the cells that form the renal tubules (White et al. 1989; Hodson et al. 2006; Santos‐Neto et al. 2006), we can evaluate renal Ugn signaling (the presence of Ugn within the tubule lumen) by measuring the rate at which Ugn is excreted in urine (UUgnV). However, the conventional Ugn bioassay, which measures levels of the peptide by quantifying its stimulatory effect on ligand‐activated cGMP synthesis (Carrithers et al. 1999, 2000a), is compromised by high levels of cGMP that are naturally present in urine. […]
# It can quantify Ugn in the picomolar range (Fig. 2A, black circles), allowing us to perform triplicate measurements of Ugn in rat urine samples as small as 20 μL. […]
# [2] = Tissue (vascular) ligation studies, plasma proUgn; format: in vivo, rat
# Description: Rats were anesthetized (sodium pentobarbital, 60 mg/kg, ip) and prepared for clearance experiments as previously described (Moss et al. 2010). They received an initial infusion of isotonic saline (6% of body weight), followed by an infusion of 10% mannitol in 0.9% saline at 100 μL/min containing FITC‐labeled inulin (400 μg/mL, Sigma Chemical Co. St Louis, MO). For renal ligations, 5.0 silk thread ligatures were placed loosely around right and left renal arteries, and tightened after baseline data had been collected. For intestinal ligations, the bowels were exteriorized and wrapped in saline‐soaked gauze. […] Blood was sampled every 40 min from the femoral artery.
# ProUgn concentrations in plasma and tissues were measured by quantitative western blotting, as described previously (Moss et al. 2008). Samples were loaded on 4–12% polyacrylamide gels (Invitrogen Corp., Carlsbad, CA), and a standard curve was constructed with known amounts of recombinant rat proUgn (Ironwood Pharmaceuticals, Cambridge, MA). Gels were blotted to nitrocellulose and probed with primary antibody 6910 (Moss et al. 2008; Qian et al. 2008) and an IR dye‐coupled secondary antibody. Imaging and quantification were performed with an Odyssey System (LI‐COR Biosciences, Lincoln, NE). Values were corrected for recovery, as determined in parallel control assays with known amounts of recombinant rat proUgn.
# Previous surveys have identified only two organs (intestine and kidney) that contain levels of proUgn polypeptide sufficient to generate the relatively large circulating pool of proUgn (Moss et al. 2008; Qian et al. 2008). To determine the extent to which each of these organs contributes to the plasma pool, we ligated either the splanchnic or the renal blood supply, and measured the effects of each ligation on circulating proUgn levels. […] For the renal ligations, we also infused each animal with inulin (a reference standard used to assess glomerular filtration rates), and measured plasma inulin at each time point (Fig. 5A, left panel, white symbols). […]
# [3] = cited from earlier work
# Description: To investigate this in a statistically reliable manner, we obtained single plasma samples from a larger number of individual animals at a specific time of day (3 AM) under each dietary condition. […] Recent speculation has focused on proUgn, rather than Ugn, as the endocrine mediator of this putative signaling axis, because (1) proUgn is by far the most abundant molecular species stored in tissues and circulating in plasma (Moss et al. 2008), and (2) when isotopically labeled recombinant p ...
# [4] = intravascular infusion, rodents; ref none printed in abstract; cited from earlier work
# Description: Abstract The peptide uroguanylin (Ugn) is expressed at significant levels only in intestine and kidney, and is stored in both tissues primarily (perhaps exclusively) as intact prouroguanylin (proUgn). […] In conjunction with previous studies, this observation critically strengthens the contention that Ugn is an authentic endocrine agent as follows: (1) Ablation of the Ugn gene leads to hypertension (Lorenz et al. 2003; Elitsur et al. 2006), an appropriate phenotype for an animal that lacks an endocrine mechanism involved in electrolyte homeostasis.
molecule,measurement,setting,value
"CC[C@H](C)[C@@H]1NC(=O)[C@H](CCC(=O)O)NC(=O)[C@@H](NC(=O)[C@@H](NC(=O)[C@H](CC(N)=O)NC(=O)[C@@H]2CCCN2)[C@@H](C)O)CSSC[C@@H]2NC(=O)[C@H](C)NC(=O)[C@H](C)NC(=O)[C@H](Cc3ccc(O)cc3)NC(=O)[C@H](C)NC(=O)[C@H](CSSC[C@@H](C(=O)O)NC(=O)CNC(=O)[C@H]([C@@H](C)O)NC2=O)NC1=O [Gn, guanylin] (H-PNTCEICAYAACTGC-OH; disulfide 4-12, 7-15)",Ki,[1],170 nM
"CC[C@H](C)[C@@H]1NC(=O)[C@@H]2CSSC[C@@H](C(=O)O)NC(=O)CNC(=O)[C@H]([C@@H](C)O)NC(=O)[C@H](CSSC[C@H](NC(=O)[C@H](CCC(=O)O)NC(=O)[C@H](CC(=O)O)NC(=O)[C@@H](N)[C@@H](C)O)C(=O)N[C@@H](CCC(=O)O)C(=O)N[C@@H](CC(C)C)C(=O)N2)NC(=O)[C@H](C)NC(=O)[C@H](C(C)C)NC(=O)[C@H](CC(N)=O)NC1=O [Ugn, uroguanylin] (H-TDECELCINVACTGC-OH; disulfide 4-12, 7-15)",Ki,[1],1.04 nM
"^125I‐Y‐Ugn: N‐tyrosyl rat Ugn (Y‐Ugn, Bachem Inc.) iodinated as previously described; radioligand (YTDECELCINVACTGC; 125I-iodinated on the added N-terminal Tyr; two disulfides (Cys1-Cys3 and Cys2-Cys4 of the uroguanylin peptide, by convention); The 15-residue C-terminal peptide limits are by convention; check residu)",Kd,"[1]; T84 cell membranes (10–20 μg protein), filtration, gamma counter, R2 0.9659, n = 3",1.5 nM
"prouroguanylin (protein, UniProt P70668 22-106, looked up, pro-form, Recombinant rat proUgn, Ironwood Pharmaceuticals; also endogenous propeptide in plasma) pro-form: VYIKYHGFQVQLESVKKLNELEEKQMSDPQQQKSGLLPDVCYNPALPLDLQPVCASQEAASTFKALRTIATDECELCINVACTGC",Plasma proUgn after renal artery ligation,"[2]; endogenous, anesthetized rats, renal artery ligation",rose rapidly
same,Plasma proUgn after splanchnic ligation,"[2]; endogenous, anesthetized rats, splanchnic ligation",fell to barely detectable levels
same,Postligation rate of rise of plasma proUgn relative to inulin,"[2]; renal artery ligation, FITC-inulin infused, percentage basis",nearly identical to that of inulin
same,Time for appearance of nearly all recovered Ugn in urine after proUgn,"[3]; intravascular bolus of exogenous proUgn, ref Moss et al. 2010",30 to 60 min
same,Renal filtration and conversion,"[3]; isotopically labeled recombinant proUgn infused intravascularly, ref Qian et al. 2008","readily filtered from plasma by the kidney, and converted within the kidney to Ugn"
same,Natriuretic response,[4],natriuretic responses in rodents
same,Ki,[1],8900 nM
